Key:
[1] = molecular target: recombinant human TLR4 protein (human) (UniProt O00206); assay: SPR; Biacore T200; TLR4 immobilised on CM5 chip (6000 RU); HpGroES proteins flowed at 7.8125-1000 nM, 30 μl/min, 25 °C; PBS with 0.05% P20; Kd from saturation curves (GraphPad Prism)
[2] = molecular target: the molecule itself; assay: SEC; HiLoad 16/600 Superdex 200 pg; 150 mM NaCl, 25 mM potassium phosphate pH 7.4, 1 mM DTT, 0.3% glycerol; 2 ml/min
[3] = molecular target: T1, recombinant human TLR4 protein (human, UniProt O00206 24-631); assay: SPR; Biacore T200; TLR4 immobilised on CM5 chip (6000 RU); HpGroES proteins flowed at 7.8125-1000 nM, 30 μl/min, 25 °C; PBS with 0.05% P20; Kd from saturation curves (GraphPad Prism); conditions: both partners purified
T1 construct: Toll-like receptor 4, human, recombinant protein from R&D Systems; R&D Systems' recombinant human TLR4 is, as far as recalled, the extracellular domain with a His tag (some products are a complex with MD-2); also called Toll-like receptor 4; source: bought: R&D Systems
T1 sequence (O00206 24-631): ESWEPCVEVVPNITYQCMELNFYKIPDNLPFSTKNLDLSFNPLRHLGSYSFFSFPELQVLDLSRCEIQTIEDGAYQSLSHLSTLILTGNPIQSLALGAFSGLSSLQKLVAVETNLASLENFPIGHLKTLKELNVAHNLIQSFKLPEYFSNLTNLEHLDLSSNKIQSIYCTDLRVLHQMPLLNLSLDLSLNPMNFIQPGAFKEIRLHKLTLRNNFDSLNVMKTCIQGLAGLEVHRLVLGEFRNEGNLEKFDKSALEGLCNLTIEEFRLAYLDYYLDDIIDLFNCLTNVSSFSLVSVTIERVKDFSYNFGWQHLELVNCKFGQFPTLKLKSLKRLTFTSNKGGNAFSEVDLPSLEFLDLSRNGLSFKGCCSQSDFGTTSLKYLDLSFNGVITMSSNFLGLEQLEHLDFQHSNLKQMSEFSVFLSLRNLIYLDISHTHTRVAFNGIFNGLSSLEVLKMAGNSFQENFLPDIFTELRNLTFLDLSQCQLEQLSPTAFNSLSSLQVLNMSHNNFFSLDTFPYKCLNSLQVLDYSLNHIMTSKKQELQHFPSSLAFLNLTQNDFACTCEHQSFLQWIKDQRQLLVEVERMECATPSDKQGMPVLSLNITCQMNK

recombinant human TLR4 protein (human), sequence (O00206 24-631): as above

Row | Molecule | Kd [1] [nM] | stoichiometry N [2] | Kd [3] [nM]
1 | HpGroES H100A mutant (from UniProt P0A0R3 1-118) (natural protein) | > 1000 |  | 
2 | Helicobacter pylori GroES (HpGroES), wild type (natural protein, GroES (HspA) of Helicobacter pylori; domain A plus C-terminal domain B (residues 91-118); Protein was dialysed with 4 molar equivalents of NiSO4 before size exclusion (nickel-loaded); also called WT; heat shock protein (HSP) A; source: E. coli M15 (pQE30), purified (Ni2+-chelating Sepharose, Superdex 200 size exclusion)) MKFQPLGERVLVERLEEENKTSSGIIIPDNAKEKPLMGVVKAVSHKISEGCKCVKEGDVIAFGKYKGAEIVLDGTEYMVLELEDILGIVGSGSCCHTGNHDHKHAKEHEACCHDHKKH |  | 7 | 100
3 | HpGroES H102A mutant (natural protein, Helicobacter pylori, UniProt P0A0R3 1-118, looked up, GroES (HspA) of Helicobacter pylori with a point mutation in domain B; Same construct as m1 with the mutation; nickel-loaded during purification; source: E. coli M15 (pQE30), purified (Ni2+-chelating Sepharose, Superdex 200 size exclusion)) MKFQPLGERVLVERLEEENKTSSGIIIPDNAKEKPLMGVVKAVSHKISEGCKCVKEGDVIAFGKYKGAEIVLDGTEYMVLELEDILGIVGSGSCCHTGNHDAKHAKEHEACCHDHKKH |  | 7 | > 1000
4 | HpGroES H96A mutant (natural protein, Helicobacter pylori, UniProt P0A0R3 1-118, looked up, GroES (HspA) of Helicobacter pylori with a point mutation in domain B; Same construct as m1 with the mutation; nickel-loaded during purification; source: E. coli M15 (pQE30), purified (Ni2+-chelating Sepharose, Superdex 200 size exclusion)) MKFQPLGERVLVERLEEENKTSSGIIIPDNAKEKPLMGVVKAVSHKISEGCKCVKEGDVIAFGKYKGAEIVLDGTEYMVLELEDILGIVGSGSCCATGNHDHKHAKEHEACCHDHKKH |  | 7 | 110
5 | HpGroES H108A mutant (natural protein, Helicobacter pylori, UniProt P0A0R3 1-118, looked up, GroES (HspA) of Helicobacter pylori with a point mutation in domain B; Same construct as m1 with the mutation; nickel-loaded during purification; source: E. coli M15 (pQE30), purified (Ni2+-chelating Sepharose, Superdex 200 size exclusion)) MKFQPLGERVLVERLEEENKTSSGIIIPDNAKEKPLMGVVKAVSHKISEGCKCVKEGDVIAFGKYKGAEIVLDGTEYMVLELEDILGIVGSGSCCHTGNHDHKHAKEAEACCHDHKKH |  | 7 | > 1000
6 | HpGroES H115A mutant (natural protein, Helicobacter pylori, UniProt P0A0R3 1-118, looked up, GroES (HspA) of Helicobacter pylori with a point mutation in domain B; Same construct as m1 with the mutation; nickel-loaded during purification; source: E. coli M15 (pQE30), purified (Ni2+-chelating Sepharose, Superdex 200 size exclusion)) MKFQPLGERVLVERLEEENKTSSGIIIPDNAKEKPLMGVVKAVSHKISEGCKCVKEGDVIAFGKYKGAEIVLDGTEYMVLELEDILGIVGSGSCCHTGNHDHKHAKEHEACCHDAKKH |  | 7 | 150
7 | HpGroES H104A mutant (natural protein, Helicobacter pylori, UniProt P0A0R3 1-118, looked up, GroES (HspA) of Helicobacter pylori with a point mutation in domain B; Same construct as m1 with the mutation; nickel-loaded during purification; source: E. coli M15 (pQE30), purified (Ni2+-chelating Sepharose, Superdex 200 size exclusion)) MKFQPLGERVLVERLEEENKTSSGIIIPDNAKEKPLMGVVKAVSHKISEGCKCVKEGDVIAFGKYKGAEIVLDGTEYMVLELEDILGIVGSGSCCHTGNHDHKAAKEHEACCHDHKKH |  | 7 | 100
8 | HpGroES H113A mutant (natural protein, Helicobacter pylori, UniProt P0A0R3 1-118, looked up, GroES (HspA) of Helicobacter pylori with a point mutation in domain B; Same construct as m1 with the mutation; nickel-loaded during purification; source: E. coli M15 (pQE30), purified (Ni2+-chelating Sepharose, Superdex 200 size exclusion)) MKFQPLGERVLVERLEEENKTSSGIIIPDNAKEKPLMGVVKAVSHKISEGCKCVKEGDVIAFGKYKGAEIVLDGTEYMVLELEDILGIVGSGSCCHTGNHDHKHAKEHEACCADHKKH |  | 7 | > 1000
9 | HpGroES H100A mutant (natural protein, Helicobacter pylori, UniProt P0A0R3 1-118, looked up, GroES (HspA) of Helicobacter pylori with a point mutation in domain B; Same construct as m1 with the mutation; nickel-loaded during purification; source: E. coli M15 (pQE30), purified (Ni2+-chelating Sepharose, Superdex 200 size exclusion)) MKFQPLGERVLVERLEEENKTSSGIIIPDNAKEKPLMGVVKAVSHKISEGCKCVKEGDVIAFGKYKGAEIVLDGTEYMVLELEDILGIVGSGSCCHTGNADHKHAKEHEACCHDHKKH |  | 7 | 
10 | HpGroES H118A mutant (natural protein, Helicobacter pylori, UniProt P0A0R3 1-118, looked up, GroES (HspA) of Helicobacter pylori with a point mutation in domain B; Same construct as m1 with the mutation; nickel-loaded during purification; source: E. coli M15 (pQE30), purified (Ni2+-chelating Sepharose, Superdex 200 size exclusion)) MKFQPLGERVLVERLEEENKTSSGIIIPDNAKEKPLMGVVKAVSHKISEGCKCVKEGDVIAFGKYKGAEIVLDGTEYMVLELEDILGIVGSGSCCHTGNHDHKHAKEHEACCHDHKKA |  | 7 | > 1000
